assay: soluble on expression in E. coli; label from the status in PepcDB or PDB records

| Sequence | soluble on expression in E. coli |
| --- | --- |
| MQKISRIVNSIYLTAELTAGTANTYDLIAEFFNFGPDSYNKLQSIDMKELKSGLEEIVSIHSELTYTDIDKRAEQRFRHLIEIRKEVEGVGSLEDIKDAQANYKSELETFKKTTFDTAGIEEFQNAVKNFIGAAADVEKYSNLEKLTDVDIMYARPLIYTLKTSIENLAKSYSSINSFDDFEKIRNPSEFVDPISKIVSGYKKYNASRTTIERDGNFAKGMQSNANNMKRLENVASVFEGLGSFVKNLQAVIDVRQTMHLPKYTVGFIDGTFDPKKVVTDLEDDWVQSVTHEMDLNRTINLLLPIGDHVSAIEASFLSSSSKQSKFFTGFKSSETEVSPVDGSIDSIISTSKKVSECIIAPLTYLESIKEVEILLQAIESLKKTVDTLVGTKELVNWVKTNDVVLKEVEALCSYTDEEKKDFESSVPIKLKGLKSSENYTSLIKTLNQSSLFADAVFSEKLSTTGQETAYILGGLQSLDAFYNSATDHIAFFDCLLNVAYYDLIPLAIDTLNKVRKMDVQPIRDGIDVVNDLFNVSNQLDELKTKLRELNDPNFSIAETPLSNPSLHTTTIGLSVRGVIRMKDEIDHRSDFDVVIENAEMVDQEMKNTGKKAINMVEFGSRLKKLKSELEGWKSNITVGGAHRIRRSTPSLADYAHIFQNALKVGGVDDDLKKLMDAVKDFEKTGKDAATKVKLKEVIASLNSLNSIGLQLSSFATPFTAIGQSFSALDAFFVSNGKIITTPAPIVSSSDIRSPTIEDATALVSFLYKLLNDFMKEEGDKGATNNGKLPLKAMYQFCKSILRIANLAPNNAIVESEKYSEQDRYSDVLCGMDNRILIDEDVCRRCYFKDQYINANYLELPNGNRMILTQAPMSRTEHFKPEKDKKRKNLYSLSDEEEEISYLVQTVDKFYQTIVQTGTEVVAMLCDFNEEGVEKCSSYFPLEKDGKQKFHNVNVCTTNVQHPSADVVLRTLVITSYLGEKKKTHTVKHYSYKGWIEKNAPELPREILNIFRVARNSKSLVVHCSNGIGRSAAFVSWELCYHFVPVNFEICDFSVAEFVYQKMIRSLDTTSTVNLDFLSLLTELRHSRPRAIHTPMQLAFSIMMVLDFVMNNFPKGEMEAKYQEIRKSYLHARQMMHKDLEFDGSDGKTVDIALDEDGHGIPEKKGKKKTNKKAAQQASVKKDEKSKKKSKKDSKKGSKMDMKTAEEGMKSLQKKAA | not soluble |
| IDPFTADAGHTEFTDEVYQNESRYPGGDWKPAEDTYTDANGDKAASPSELTCPPGWEWEDDAWSYDINRAVDEKGWEYGITIPPDHKPKSWVAAEKMYHTHRRRRLVRKRKKDLTQTASSTAR | soluble |
| MGSDKIHHHHHHMTSKNQSPLASDHPLAMPDTEISAREVFGIDIDMLVPAFSVGSEHVPDVDPAYRFDPDTTKAILAGFAFNRRVMVQGYHGTGKSTHIEQVAARLNWPCIRVNLDSHVSRIDLIGKDAIVVKDGKQITEFREGMLPWALQHPCALVFDEYDAGRPDVMFVIQRVLEVEGRLTLLDQNRVIRPHAAFRLFATANTVGLGDTTGLYHGTQQINQGQMDRWNIVATLNYLAHDDECSIVVAKLKDYDTPEGRDLVSKMVMLADLTRQGFMNGDISTVMSPRTVITWAENTRIFGDHSYGFRVTFLNKCDEVERPILAEYYQRCFGTDLPDGPARMLA | not soluble |
| MLTPRDENNEGDAMPMLKKPRYSSLSGQSTNITYQEHTISREERAAAVGRHEGFRGCTIWFTGLSGAGKTTISFALERTLNKLGIPCYGLDGDNIRHGLCKNLGFSKEDRQENIRRVAEVAKLFADSGMICLAAFISPFQEDRLDARKIHESENVKFIEVHVSTTLEVCEQRDPKQLYKKARAGQILGFTGIDSAYEPPENAEIILDAGKDGVQQCVQKVLDHLESKGLLPEQIPDVPAVRELFVSDDLTVAELLKESQNLPTVELTKVDLQWLQVLAEGWATPLSGFMRERQYLQSMHFGQLLDLKHKVAFVGEKSDDKEDSWPMMDDINQSIPIVLPISDDVKKGLEGVTRIALKYNGQVYAILSDPEIFEHRKDERVCRQFGTNDPRHPAVAQVLESGNWLLGGDVAVVQKIQFNDGLDKYRKTPNELRAIFAEKNADAVFAFQLRNPIHNGHALLMRDTREKLLAEHKNPILLLHPLGGWTKDDDVPLDIRIKQHEAVIAERVLDPEWTVLSIFPSPMMYAGPTEVQWHARSRIAAGIQHYIVGRDPAGIQKPGSPDALYETTHGAKVLSMAPGLSALHILPFRVAAYDKTAKKMSFFDTSRKEDFENISGTKMRGLARNGDTPPEGFMAPTAWEVLAGYYKSLQNSN | not soluble |
